Article PMC2596940
Read-outs that look alike come from different tables or passages of the source.

Row | Substance | other (SUMOylation at K595) | other (SUMOylation at K587)
1 | amyloid precursor protein (APP): K595R | increases | –
2 | amyloid precursor protein (APP): K587R | – | increases
3 | amyloid precursor protein (APP): K587R/K595R | increases | increases
